Here are results for two substances from patent US20130310305A1.

The target of assay [1] is plasminogen (purified; Molecular Innovations in the plasmin activity reactions). As to the kind of experiment: cell-based or functional assay.
The target of assay [2] is mouse plasminogen (endogenous, in descending aorta protein of LDLR-/- ApoB48-deficient mice) (mouse) (UniProt P20918). Description: co-immunoprecipitation from pooled mouse descending aorta protein, densitometry of the western blot.
Sequence of UniProt P20918 (P20918 20-812 limits assumed): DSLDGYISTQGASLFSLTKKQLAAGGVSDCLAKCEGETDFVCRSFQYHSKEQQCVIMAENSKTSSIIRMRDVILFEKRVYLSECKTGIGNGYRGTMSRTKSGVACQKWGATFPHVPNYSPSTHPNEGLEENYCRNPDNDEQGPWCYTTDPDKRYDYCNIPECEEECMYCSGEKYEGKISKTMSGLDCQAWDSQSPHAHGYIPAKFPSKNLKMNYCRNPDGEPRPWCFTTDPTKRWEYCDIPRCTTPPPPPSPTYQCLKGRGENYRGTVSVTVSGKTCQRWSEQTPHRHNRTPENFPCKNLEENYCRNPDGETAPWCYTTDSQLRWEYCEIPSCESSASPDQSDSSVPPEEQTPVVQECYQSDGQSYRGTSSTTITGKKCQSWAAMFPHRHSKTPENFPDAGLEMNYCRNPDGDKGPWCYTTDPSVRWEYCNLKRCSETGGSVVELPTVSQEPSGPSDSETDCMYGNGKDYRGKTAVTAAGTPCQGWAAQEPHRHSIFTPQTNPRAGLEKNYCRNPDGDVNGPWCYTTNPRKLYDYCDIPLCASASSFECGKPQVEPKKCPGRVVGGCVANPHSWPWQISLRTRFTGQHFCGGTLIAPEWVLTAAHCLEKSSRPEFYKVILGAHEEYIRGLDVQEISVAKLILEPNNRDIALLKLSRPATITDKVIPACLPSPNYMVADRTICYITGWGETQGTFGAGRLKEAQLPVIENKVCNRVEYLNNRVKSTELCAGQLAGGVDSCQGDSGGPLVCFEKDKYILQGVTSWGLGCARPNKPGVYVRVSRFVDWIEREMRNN

As for “glycosylated human PAI-1 (Molecular Innovations) (from UniProt P05121 24-402)”, the plasmin activity (chromozym assay); 50 nM PAI-1 pre-bound to plasminogen 1 h at 37 C before tPA was added (late) in assay [1] was 0.00138 U/ml. Regarding “mouse PAI-1 (endogenous, in descending aorta protein of LDLR-/- ApoB48-deficient mice) (from UniProt P22777 23-402)”, the fold more plasminogen complexed with PAI-1 (rPAI-123-treated against saline-treated mice) in assay [2] is 1.6 fold.
